What was measured:
Assay in all cases: Crosslinking/co-immunoprecipitation/mass spectrometry (TMT quantitative proteomics) to identify irisin receptors
Assay type in all cases: binding
[1] = target: T1, MLO-Y4 cell surface proteins (Mus musculus, UniProt Q9CYR0); conditions: co-precipitated protein Ssbp1 (SSBP_MOUSE)
T1 construct: endogenous in cells; host or cells: MLO-Y4
T1 sequence (Q9CYR0 17-152): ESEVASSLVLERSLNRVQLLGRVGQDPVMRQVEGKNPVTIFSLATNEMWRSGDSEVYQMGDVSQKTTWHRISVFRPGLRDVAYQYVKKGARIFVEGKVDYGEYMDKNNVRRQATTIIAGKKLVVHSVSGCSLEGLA
In short: (§1)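 Relative protein abundance came from 6-plex TMT MS3 quantitation on an Orbitrap Fusion Lumos, after in-gel trypsin digestion of Coomassie-stained SDS-PAGE lanes. Input was a Ni-NTA pulldown (250 mM imidazole elution) of lysates from murine MLO-Y4 cells. These cells were treated on ice with His-tagged irisin or adipsin (10 nM, 20 min) in serum-free medium, then crosslinked with 1.5 mM DTSSP for 30 min.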

[2] = target: T2, MLO-Y4 cell surface proteins (Mus musculus, UniProt P63038); conditions: co-precipitated protein Hspd1 (CH60_MOUSE)
T2 construct: endogenous in cells; host or cells: MLO-Y4
In short: as §1

[3] = target: T3, MLO-Y4 cell surface proteins (Mus musculus, UniProt Q3U1J4); conditions: co-precipitated protein Ddb1 (DDB1_MOUSE)
T3 construct: endogenous in cells; host or cells: MLO-Y4
In short: as §1

[4] = target: T4, MLO-Y4 cell surface proteins (Mus musculus, UniProt Q9Z138); conditions: co-precipitated protein Ror2 (ROR2_MOUSE)
T4 construct: endogenous in cells; host or cells: MLO-Y4
In short: as §1

[5] = target: T5, MLO-Y4 cell surface proteins (Mus musculus, UniProt O70404); conditions: co-precipitated protein Vamp8 (VAMP8_MOUSE)
T5 construct: endogenous in cells; host or cells: MLO-Y4
T5 sequence (O70404 1-101): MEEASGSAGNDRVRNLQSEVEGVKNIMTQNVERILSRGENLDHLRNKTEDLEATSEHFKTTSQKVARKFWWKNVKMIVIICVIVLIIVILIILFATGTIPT
In short: as §1

[6] = target: T6, MLO-Y4 cell surface proteins (Mus musculus, UniProt Q9DCW4); conditions: co-precipitated protein Etfb (ETFB_MOUSE)
T6 construct: endogenous in cells; host or cells: MLO-Y4
T6 sequence (Q9DCW4 1-255): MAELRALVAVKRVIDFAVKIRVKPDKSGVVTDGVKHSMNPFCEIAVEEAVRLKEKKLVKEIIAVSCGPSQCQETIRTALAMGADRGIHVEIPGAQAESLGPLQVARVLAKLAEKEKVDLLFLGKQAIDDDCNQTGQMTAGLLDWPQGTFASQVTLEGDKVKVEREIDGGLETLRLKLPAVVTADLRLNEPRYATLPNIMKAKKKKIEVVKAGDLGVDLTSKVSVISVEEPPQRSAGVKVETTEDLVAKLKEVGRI
In short: as §1

T4 sequence (Q9Z138 34-944): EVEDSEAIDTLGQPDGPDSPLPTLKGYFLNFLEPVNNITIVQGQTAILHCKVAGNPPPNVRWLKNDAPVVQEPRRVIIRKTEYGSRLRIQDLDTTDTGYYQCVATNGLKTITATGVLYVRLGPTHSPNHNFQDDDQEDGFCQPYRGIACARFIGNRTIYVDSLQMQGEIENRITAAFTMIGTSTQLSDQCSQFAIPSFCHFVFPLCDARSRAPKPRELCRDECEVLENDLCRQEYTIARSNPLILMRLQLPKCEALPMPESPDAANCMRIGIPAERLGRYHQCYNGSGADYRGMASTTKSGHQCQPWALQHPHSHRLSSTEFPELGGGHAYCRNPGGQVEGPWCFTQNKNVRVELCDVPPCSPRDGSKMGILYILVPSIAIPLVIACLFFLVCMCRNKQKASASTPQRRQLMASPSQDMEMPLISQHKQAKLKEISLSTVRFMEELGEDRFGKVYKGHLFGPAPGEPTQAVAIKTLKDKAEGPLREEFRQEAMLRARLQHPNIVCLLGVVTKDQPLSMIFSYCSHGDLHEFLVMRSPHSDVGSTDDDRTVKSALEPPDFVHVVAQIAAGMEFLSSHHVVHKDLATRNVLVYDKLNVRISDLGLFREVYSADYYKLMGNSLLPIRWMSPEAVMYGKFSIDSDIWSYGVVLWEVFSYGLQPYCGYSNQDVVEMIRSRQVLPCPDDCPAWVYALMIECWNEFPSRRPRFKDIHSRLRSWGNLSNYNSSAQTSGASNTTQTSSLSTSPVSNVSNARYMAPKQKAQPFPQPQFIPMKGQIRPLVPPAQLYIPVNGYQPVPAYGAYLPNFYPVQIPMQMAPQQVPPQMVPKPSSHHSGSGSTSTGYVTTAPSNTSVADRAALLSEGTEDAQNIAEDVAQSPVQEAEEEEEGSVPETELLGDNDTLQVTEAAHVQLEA
T2 sequence (P63038 27-573): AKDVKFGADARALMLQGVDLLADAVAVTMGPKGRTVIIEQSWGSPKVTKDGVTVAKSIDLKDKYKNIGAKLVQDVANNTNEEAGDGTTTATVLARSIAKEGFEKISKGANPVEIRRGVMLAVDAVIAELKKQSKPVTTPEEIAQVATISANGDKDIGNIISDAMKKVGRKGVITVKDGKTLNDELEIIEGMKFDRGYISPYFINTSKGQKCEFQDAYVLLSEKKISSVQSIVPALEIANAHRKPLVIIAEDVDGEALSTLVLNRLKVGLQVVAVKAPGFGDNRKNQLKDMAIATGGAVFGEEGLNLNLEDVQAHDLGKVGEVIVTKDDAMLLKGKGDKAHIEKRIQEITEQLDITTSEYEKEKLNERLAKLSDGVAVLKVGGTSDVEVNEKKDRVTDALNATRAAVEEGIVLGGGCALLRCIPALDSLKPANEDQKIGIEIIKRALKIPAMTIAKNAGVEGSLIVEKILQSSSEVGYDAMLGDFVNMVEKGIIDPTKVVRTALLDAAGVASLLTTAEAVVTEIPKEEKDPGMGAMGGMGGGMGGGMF
T3 sequence (Q3U1J4 whole entry): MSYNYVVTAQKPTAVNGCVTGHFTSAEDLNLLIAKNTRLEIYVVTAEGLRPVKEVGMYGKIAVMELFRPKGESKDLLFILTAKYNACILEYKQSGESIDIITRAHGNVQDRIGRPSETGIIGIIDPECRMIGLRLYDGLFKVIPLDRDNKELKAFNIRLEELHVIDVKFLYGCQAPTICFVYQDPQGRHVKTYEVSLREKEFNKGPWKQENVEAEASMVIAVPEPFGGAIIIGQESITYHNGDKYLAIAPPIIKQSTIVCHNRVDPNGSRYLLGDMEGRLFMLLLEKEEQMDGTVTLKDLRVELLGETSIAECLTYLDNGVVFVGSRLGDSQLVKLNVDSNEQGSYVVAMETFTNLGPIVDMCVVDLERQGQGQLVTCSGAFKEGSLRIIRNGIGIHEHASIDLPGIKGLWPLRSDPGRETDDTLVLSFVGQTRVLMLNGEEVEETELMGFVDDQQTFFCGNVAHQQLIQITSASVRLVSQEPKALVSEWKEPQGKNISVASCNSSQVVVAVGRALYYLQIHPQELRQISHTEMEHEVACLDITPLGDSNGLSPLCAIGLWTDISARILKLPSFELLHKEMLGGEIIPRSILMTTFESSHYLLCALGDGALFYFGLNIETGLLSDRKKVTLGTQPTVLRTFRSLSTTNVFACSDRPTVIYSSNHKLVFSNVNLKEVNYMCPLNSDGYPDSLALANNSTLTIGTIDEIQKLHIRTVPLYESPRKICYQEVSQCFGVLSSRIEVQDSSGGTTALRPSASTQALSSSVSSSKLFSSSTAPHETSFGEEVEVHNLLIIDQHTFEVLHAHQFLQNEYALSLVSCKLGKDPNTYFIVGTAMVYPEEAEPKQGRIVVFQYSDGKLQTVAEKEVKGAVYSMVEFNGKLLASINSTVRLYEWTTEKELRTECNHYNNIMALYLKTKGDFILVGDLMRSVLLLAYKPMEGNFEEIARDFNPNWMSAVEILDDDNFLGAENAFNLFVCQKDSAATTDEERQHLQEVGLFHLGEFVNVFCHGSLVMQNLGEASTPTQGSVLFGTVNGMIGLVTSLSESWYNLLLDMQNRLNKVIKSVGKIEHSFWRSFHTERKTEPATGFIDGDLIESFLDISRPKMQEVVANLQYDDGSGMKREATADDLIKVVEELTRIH

B1: irisin: secreted cleaved form of FNDC5; recombinant human/mouse irisin with C-terminal his tag produced in HEK293 cells (protein)
chain: DSPSAPVNVTVRHLKANSAVVSWDVLEDEVVIGFAISQQKKDVRMLRFIQEVNTTTRSCALWDLEEDTEYIVHVQAISIQGQSPASEPVLFKTPREAEKMASKNKDEVTMKE
modifications: left off: small tags and cut ends
notes: secreted cleaved form of FNDC5; recombinant human/mouse irisin with C-terminal his tag produced in HEK293 cells
[1]
  TMT signal-to-noise ratio: 244.754
  irisin/adipsin TMT signal-to-noise ratio: 0.566
[2]
  TMT signal-to-noise ratio: 2002.08
  irisin/adipsin TMT signal-to-noise ratio: 0.470
[3]
  TMT signal-to-noise ratio: 149.943
  irisin/adipsin TMT signal-to-noise ratio: 0.352
[4]
  TMT signal-to-noise ratio: 39.5932
  irisin/adipsin TMT signal-to-noise ratio: 0.585
[5]
  TMT signal-to-noise ratio: 169.775
  irisin/adipsin TMT signal-to-noise ratio: 0.566
[6]
  TMT signal-to-noise ratio: 409.026
  irisin/adipsin TMT signal-to-noise ratio: 0.560

From patent publication US20210063414A1, “METHODS FOR PREVENTING AND/OR TREATING BONE LOSS CONDITIONS BY MODULATING IRISIN” (Dana-Farber Cancer Institute, Inc., priority 2018, published 2021)
